Assay results published in publication PMC12609441, “Comparative Preclinical Evaluation of the Tumor-Targeting Properties of Radioiodine and Technetium-Labeled Designed Ankyrin Repeat Proteins for Imaging of Epidermal Growth Factor Receptor Expression in Malignant Tumors” (International Journal of Molecular Sciences, 2025).
Values belong to the binder of their own block, whether it stands above or below them.

Target: T1, epidermal growth factor receptor (EGFR) (human (endogenous in A-431, DU-145, …, UniProt P00533 25-1210))
T1 construct: also called ErbB1; HER1
Assay: radioligand binding; saturation assay on living A-431 cells; eight concentrations of radiolabeled protein 0.22 to 40 nM, 4 h at 4 °C; nonspecific binding with 50-fold molar excess of unlabeled (HE)3-E01; nonlinear regression
Conditions: one partner purified

Kd: 4.9 ± 0.5 nM
B1: [^99mTc]Tc-(HE)3-E01 (designed binder)
chain: MRGSHEHEHEGSDLGKKLLEAARAGQDDEVRILMANGADVNADDTWGWTPLHLAAYQGHLEIVEVLLKNGADVNAYDYIGWTPLHLAADGHLEIVEVLLKNGADVNASDYIGDTPLHLAAHNGHLEIVEVLLKHGADVNAQDKFGKTAFDISIDNGNEDLAEILQKLN
modifications: [^99mTc]Tc(CO)3^+ with the (HE)3 tag as a chelator at the N-terminus
notes: DARPin E01 with the N-terminal (HE)3 tag; also called DARPin (HE)3-E01 labeled with [^99mTc]Tc(CO)3; technetium-labeled variant; source: E. coli, purified; labeled with [^99mTc]Tc(CO)3, isolated on NAP-5 size-exclusion column; not shown: (HE)3, N-terminal, kept

Kd: 2.5 ± 0.5 nM
B2: [^123I]I-(HE)3-E01-PIB (designed binder)
chain: B1 chain
modifications: [^123I]I-para-iodobenzoate (PIB) conjugated to the N-terminal or one of eight lysine amino groups (site-unspecific)
notes: DARPin E01 with the N-terminal (HE)3 tag; source: E. coli, purified; not shown: (HE)3, N-terminal, kept
